The values that follow come from patent publication US6855693B2, “Peptides for activation and inhibition of δPKC” (The Board of Trustees of the Leland Stanford Junior …, priority 2001, dated 2005).

In test [1] the target is T1, δPKC (Rattus norvegicus, UniProt P09215).
T1 construct: endogenous in cells; host or cells: primary neonatal rat cardiac myocytes
The test can be described thus: Translocation of δPKC in primary cardiac myocytes (Western blot of soluble and particulate fractions). The class given is cell-based. The protocol:
As described in Example 1, the δV1-1 and ψδRACK peptides were analyzed to determine whether the peptides had activity, and if so, whether the activity was as an agonist or an antagonist of δPKC. As will be shown, δV1-1, δV1-2 and δV1-5 are δPKC antagonists and ψδRACK is a δPKC agonist. In these studies, the δV1-1 and ψδRACK peptides were modified with a carrier peptide by cross-linking via an N-terminal Cys-Cys bond to the Drosophila Antennapedia homeodomain (SEQ ID NO:8; Théodore, L., et al.; Johnson, J. A. et al., 1996b). In other studies, not described here, the peptide was modified with Tat (SEQ ID NO:9) or with polyarginine (Mitchell et al., 2000; Rothbard et al., 2000) and gave results similar to those described herein. Details of the study are set forth in Example 1. In brief, the Antennapedia-conjugated peptides were introduced to cardiac cells at a concentration of 500 nM in the presence and absence of phorbol 12-myristate 13-acetate (PMA) or in the presence of each other. Translocation of δPKC isozyme was assessed by Western blot analysis cystosolic and particulate fractions of treated cells. Subcellular localization of δPKC isozyme was assessed by immunofluorescence by probing the blot with […], and anti-εPKC antibodies. Translocation was expressed as the amount of isozyme in the particulate fraction over the amount of isozyme in non-treated cells.
Primary cardiac myocyte cell cultures (90-95% pure) were prepared from newborn rats (Gray, M. O. et al.; Disatnik M.-H. et al.). The peptides δV1-1 and ψδRACK were introduced into cells at an applied concentration of 500 nM in the presence and absence of phorbol 12-myristate 13-acetate (PMA) at concentrations of 3 nm and 10 nm, respectively, for 10-20 minutes. In a third set of cells, the peptide δV1-1 was applied at a concentration of 500 nM in the presence and absence of 500 nM ψδRACK.
Translocation of δPKC isozyme was assessed by using δPKC isozyme-specific antibodies in Western blot analysis (Santa Cruz Biotechnology). Western blot analysis of cystosolic and particulate fractions of treated cells was carried out as described by Johnson et al., 1995. Subcellular localization of dPKC isozymes was assessed by chemiluminescence of blots probed with anti-δPKC, anti-αPKC and anti-εPKC antibodies. Amounts of PKC isozymes in each fraction was quantitated using a scanner and translocation is expressed as the amount of isozymes in the particulate fraction over the amount of isozymes in non-treated cells. Changes in translocation of δPKC isozyme were also determined by immunofluoresence study of treated and fixed cells (Gray et al., 1997). Translocation was determined by counting over 100 cells/treatment in a blinded fashion. The results are shown in FIG. 2A-2B, FIGS. 3A-3B and FIGS. 4A-4B.
(Immunoblotting shows a protein as a band on a membrane.)

In test [2] the target is T2, εPKC (Rattus norvegicus, UniProt P09216).
T2 construct: blots probed with anti-δPKC, anti-αPKC and anti-εPKC antibodies; endogenous in cells; host or cells: primary neonatal rat cardiac myocytes
T2 sequence (P09216 1-737): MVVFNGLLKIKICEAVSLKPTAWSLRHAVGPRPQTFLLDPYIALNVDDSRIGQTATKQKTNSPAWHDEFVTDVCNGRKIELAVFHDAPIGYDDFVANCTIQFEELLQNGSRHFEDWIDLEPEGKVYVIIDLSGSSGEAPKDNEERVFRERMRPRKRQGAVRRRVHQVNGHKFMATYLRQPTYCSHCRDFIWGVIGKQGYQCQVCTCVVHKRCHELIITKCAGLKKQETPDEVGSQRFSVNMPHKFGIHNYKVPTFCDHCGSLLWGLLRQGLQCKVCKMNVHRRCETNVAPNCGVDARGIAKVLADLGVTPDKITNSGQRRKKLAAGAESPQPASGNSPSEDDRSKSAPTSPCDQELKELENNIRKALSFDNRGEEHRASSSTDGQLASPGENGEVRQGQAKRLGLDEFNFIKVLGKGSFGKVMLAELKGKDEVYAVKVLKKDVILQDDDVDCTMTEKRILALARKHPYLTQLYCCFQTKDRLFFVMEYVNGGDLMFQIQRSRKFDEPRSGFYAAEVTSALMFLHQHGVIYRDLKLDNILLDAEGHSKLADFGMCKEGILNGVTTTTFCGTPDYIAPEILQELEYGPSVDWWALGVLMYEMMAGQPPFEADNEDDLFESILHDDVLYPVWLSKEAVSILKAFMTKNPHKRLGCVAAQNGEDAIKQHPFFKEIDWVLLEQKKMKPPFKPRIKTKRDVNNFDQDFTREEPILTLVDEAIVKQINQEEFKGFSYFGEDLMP
The test can be described thus: Translocation of εPKC in primary cardiac myocytes (Western blot). The class given is cell-based. Conditions: data not shown. The protocol:
As described in Example 1, the δV1-1 and ψδRACK peptides were analyzed to determine whether the peptides had activity, and if so, whether the activity was as an agonist or an antagonist of δPKC. As will be shown, δV1-1, δV1-2 and δV1-5 are δPKC antagonists and ψδRACK is a δPKC agonist. In these studies, the δV1-1 and ψδRACK peptides were modified with a carrier peptide by cross-linking via an N-terminal Cys-Cys bond to the Drosophila Antennapedia homeodomain (SEQ ID NO:8; Théodore, L., et al.; Johnson, J. A. et al., 1996b). […] Translocation of δPKC isozyme was assessed by Western blot analysis cystosolic and particulate fractions of treated cells. Subcellular localization of δPKC isozyme was assessed by immunofluorescence by probing the blot with […], and anti-εPKC antibodies. Translocation was expressed as the amount of isozyme in the particulate fraction over the amount of isozyme in non-treated cells. […]
Translocation of δPKC isozyme was assessed by using δPKC isozyme-specific antibodies in Western blot analysis (Santa Cruz Biotechnology). […] Subcellular localization of dPKC isozymes was assessed by chemiluminescence of blots probed with anti-δPKC, anti-αPKC and anti-εPKC antibodies. […] Changes in translocation of δPKC isozyme were also determined by immunofluoresence study of treated and fixed cells (Gray et al., 1997). […]

For test [3], the system named is pigs. Briefly: Left ventricurogram in pigs, ejection fraction. The class given is in vivo, pig. The protocol:
In another study, left ventricurogram was performed in pigs (n=5) at three time points: (1) before occlusion of left anterior descending artery by balloon catheter (pre ischemia); (2) immediately after reperfusion with 2.5 μM/10 mL of δV1-1 (post ischemia); and (3) before sacrifice five days later (5 days post ischemia), using 6 Fr. of pig-tail catheter. LVG was recorded by 2 views, right anterior oblique and left anterior oblique. Ejection fraction (EF), the percent of blood ejected in a beat, during maximum contraction, of the total maximum present in the left ventricle, was analyzed by the software, Plus Plus (Sanders Data Systems), and the averages of two views were evaluated. Ejection fraction is a measure of how well the heart is functioning, with a higher ejection fraction indicative of a better functioning heart.

No end group written: not given here.

T1 sequence (P09215 whole entry): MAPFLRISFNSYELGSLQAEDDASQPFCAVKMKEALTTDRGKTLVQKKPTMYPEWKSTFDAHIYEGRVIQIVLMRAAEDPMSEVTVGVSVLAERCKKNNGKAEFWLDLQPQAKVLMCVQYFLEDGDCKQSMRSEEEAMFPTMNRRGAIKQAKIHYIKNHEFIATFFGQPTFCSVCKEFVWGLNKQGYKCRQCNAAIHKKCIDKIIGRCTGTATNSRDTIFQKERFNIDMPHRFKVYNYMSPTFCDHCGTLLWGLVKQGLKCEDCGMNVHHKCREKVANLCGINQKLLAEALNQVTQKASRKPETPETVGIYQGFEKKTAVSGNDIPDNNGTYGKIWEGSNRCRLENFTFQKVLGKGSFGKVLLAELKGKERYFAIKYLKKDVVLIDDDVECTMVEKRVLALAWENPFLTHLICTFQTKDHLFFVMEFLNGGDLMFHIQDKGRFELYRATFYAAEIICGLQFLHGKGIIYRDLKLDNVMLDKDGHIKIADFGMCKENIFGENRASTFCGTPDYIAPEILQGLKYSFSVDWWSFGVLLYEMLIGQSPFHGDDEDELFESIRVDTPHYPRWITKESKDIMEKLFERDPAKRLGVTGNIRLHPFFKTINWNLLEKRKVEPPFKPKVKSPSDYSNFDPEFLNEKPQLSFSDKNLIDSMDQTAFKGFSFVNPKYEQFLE

With “MRAAEDPM (also: conjugated to Antennapedia or Tat carrier; listed as Rattus norvegicus) [ψδRACK, tested conjugated to Antennapedia or Tat carrier]”, the “δPKC translocation induced by the peptide” value in test [1] (500 nM Antennapedia-conjugated peptide, cardiac myocytes) was “selectively induced”. Also, in test [1] (500 nM ψδRACK together with 500 nM δV1-1), the “effect on the δV1-1 inhibition of basal δPKC partitioning” value is given as “reversed”. Further, the “translocation of εPKC” value in test [2] is reported as “without affecting”.
For “SFNSYELGSL (also: conjugated to Antennapedia or Tat carrier; listed as Rattus norvegicus) [δV1-1, tested conjugated to Antennapedia or Tat carrier]”, in test [3] (reperfusion with 2.5 μM/10 mL of δV1-1, post ischemia), the “decrease in ejection fraction compared with scrambled peptide control” value is “less pronounced decrease”. Also, the “ejection fraction at five days post ischemia” value in test [3] (reperfusion with 2.5 μM/10 mL of δV1-1, 5 days post ischemia) was “on par with that measured prior to ischemia and significantly higher than the untreated animals”. Further, the “PMA-induced δPKC translocation” value in test [1] (500 nM Antennapedia-conjugated peptide, with PMA, 10-20 minutes, newborn rat cardiac myocytes) is reported as “inhibited”. Besides, the “basal partitioning of δPKC in the particulate fraction” value in test [1] (500 nM δV1-1, no ψδRACK) is “inhibited”. Besides, in test [2], the “translocation of εPKC” value was “did not inhibit”.
